According to patent publication US20180079819A1 (IMMUNOGEN, published 2018):
Where “and” joins values, the source holds several entries; their conditions need not be identical. Equal entries are not always repeated. Each block holds one binder with its values, some of them ahead of it.

Experiments:
[1] = target: T1, IL3Rα (1-100) chimeric receptor protein: IL3Rα residues 1-100 fused to GMRα residues 115-325, His-tagged (human, UniProt P15509 115-325); assay: ELISA on plate-coated His-tagged protein, A450
T1 construct: range 115-325; also called IL-3Rα N-terminal domain construct
T1 sequence: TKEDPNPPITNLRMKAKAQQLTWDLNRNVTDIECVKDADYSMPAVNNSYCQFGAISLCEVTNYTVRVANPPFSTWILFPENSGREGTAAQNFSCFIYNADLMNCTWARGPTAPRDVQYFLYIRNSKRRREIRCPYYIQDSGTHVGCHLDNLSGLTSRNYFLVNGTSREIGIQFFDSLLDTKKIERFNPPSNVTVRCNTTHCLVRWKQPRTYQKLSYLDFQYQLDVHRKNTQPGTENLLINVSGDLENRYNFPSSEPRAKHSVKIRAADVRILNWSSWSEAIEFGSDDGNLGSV
Description: (§1) The chimeric and humanized anti-IL3Rα antibodies were tested in enzyme-linked immunosorbent assay (ELISA) format for binding to the IL-3Rαproteins described above. Briefly, each His-tagged IL-3Rαprotein purified by Ni Sepharose excel chromatography was diluted to 1 ng/mL in 50 mM sodium bicarbonate buffer pH 9.6, and 100 μL was added to each well. After a 16 hr incubation at 4° C., the plates were washed with Tris-buffered saline with 0.1% Tween-20 (TBST), then blocked with 200 μL blocking buffer (TBS with 1% BSA). Next, 100 μL of primary antibody, serially diluted in blocking buffer, was added in duplicate to the ELISA wells and incubated at room temperature for 1 hr. The plates were then washed 3 times with TBST before adding 100 μL of anti-human IgG (H+L)-HRP (Jackson ImmunoResearch) to each well. Once again the plates were incubated for 1 hr at room temperature followed by three washes with TBST. Finally, 100 μL of TMB one component HRP microwell substrate (Surmodics) was added to each well and incubated for 5 min. The reaction was stopped by adding 100 μL stopping solution (Surmodics) and absorbances were read at 450 nm.
(§2) Binding of the CD123 antibodies to the chimeric IL-3Rαproteins was evaluated in comparison to the wild type IL-3Rα.

[2] = target: T2, extracellular domain of CD123/IL-3Rα (residues 1-306), histidine tagged (human, UniProt P26951 19-306); assay: ELISA on plate-coated His-tagged protein, A450
T2 construct: Expressed in HEK 293T cells, purified on Ni Sepharose, coated on ELISA plates; also called wild type IL-3Rα; wild-type IL-3Rα construct
T2 sequence: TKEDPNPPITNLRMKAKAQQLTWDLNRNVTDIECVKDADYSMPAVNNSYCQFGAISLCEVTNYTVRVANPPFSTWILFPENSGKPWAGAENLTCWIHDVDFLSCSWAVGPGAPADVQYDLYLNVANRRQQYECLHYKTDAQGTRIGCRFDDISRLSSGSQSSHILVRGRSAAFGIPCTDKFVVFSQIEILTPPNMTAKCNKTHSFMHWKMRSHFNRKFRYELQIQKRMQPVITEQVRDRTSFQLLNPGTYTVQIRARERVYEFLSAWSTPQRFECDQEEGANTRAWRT
Description: as §1, §2

[3] = target: T3, human CD123 (IL-3Rα, interleukin-3 receptor alpha chain) (human, UniProt P26951 19-378); assay: cell-based or functional assay
[4] = target: T3, human CD123 (IL-3Rα, interleukin-3 …); assay: flow cytometry on HNT-34 cells, against muCD123-14 of Example 5
[5] = target: T3, human CD123 (IL-3Rα, interleukin-3 …); assay: flow cytometry on HNT-34 cells; apparent Kd
[6] = target: T3, human CD123 (IL-3Rα, interleukin-3 …); assay: flow cytometry on TF-1 cells; EC50 of the binding curve taken as apparent Kd
[7] = target: T3, human CD123 (IL-3Rα, interleukin-3 …); assay: flow cytometry on HNT-34 cells; EC50 of the binding curve taken as apparent Kd

- EC50 [1]: 0.0479 nM
- EC50 [2]: 0.0655 nM
- IC50, inhibition of IL3-dependent proliferation of TF-1 cells [3]: 0.05 nM
- fold difference of Kd from the murine counterpart [4]: ≤ 2.5 fold
- Kd [5]: 0.2 nM
B1: chCD123-14 (antibody, V domains shown)
VH: EVKLVESGGDLVKPGGSLKLSCAASGFTFSNYAMSWVRQNSEKRLEWVATINSGGSFTYYPDSVKGRFTISRDNAKDSLYLQMSSLNSEDTAMYYCARQSEAYYGYDKRTWFAYWGQGTLVTVSS
VL: DILLTQSPAILSVSPGTRVSFSCRASQSVGTSIHWYQQRPNGFPRLLIKYASESISGIPSRFSGSGSGTDFTLNINSVESEDIADYYCQQSKSWPLTFGAGTKLELKR
notes: also called chimeric CD123-14 antibody

- IC50, inhibition of IL-3 dependent proliferation of TF-1 cells [3]: 0.33 nM and 0.2 nM
- Kd [6]: 0.9 nM
- Kd [7]: 2 nM
- Kd [5]: ~2 nM
B2: 7G3 (antibody, V domains shown)
VH: EVQLQQSGPELVKPGASVKMSCKASGYTFTDYYMKWVKQSHGKSLEWIGDIIPSNGATFYNQKFKGKATLTVDRSSSTAYMHLNSLTSEDSAVYYCTRSHLLRASWFAYWGQGTLVTVSA
VL: DFVMTQSPSSLTVTAGEKVTMSCKSSQSLLNSGNQKNYLTWYLQKPGQPPKLLIYWASTRESGVPDRFTGSGSGTDFTLTISSVQAEDLAVYYCQNDYSYPYTFGGGTKLEIKR
